One may read the stoichiometry N as a count of units in the complex or per binding partner.

The record followed here is paper PMC2680067 (European journal of human genetics : EJHG, 2008).

This data set concerns the molecule itself. The experiment in a line: cross-linking.

B1: myc-EGFP-Trim50 (full-length mouse Trim50), expressed in U2OS cells (natural protein)
chain: MAWRLTVPELQDQLQCPICLEVFKEPLMLQCGHSYCKDCLDNLSQHLDSELCCPVCRQSVDCSSSPPNVSLARVIDALRLPGDIEPTVCVHHRNPLSLFCEKDQEFICGLCGLLGSHQHHRVTPVSTVYSRMKEELAGRISELKEEHRNVEEHIGKLVNNRTRIINESDVFSWVIRREFQELHHLVDEEKARCLEGLEGHTRGLVASLDMQLEQAQGTQERLAQAEQVLEQFGNESHHEFIRFHSVASRAEVQQARPLEGVFSPISFKPALHQADIKLTVWKRLFRKVLPAPASLKLDPATAHPLLELSKGNTVVHCGLLAQRRASQPERFDYSTCVLASKGFSWGRHYWEVVVGSKSDWRLGVIKGTASRKGKLNKSPEHGVWLIGLKEGRVYEAFGCPRLPLPVAGHPHRIGVYLHYEQGELTFFDADRPDDLRTLYTFQADFQGKLYPILDTCWHERGSNSLPMVLPPPSGPGHFTLGQV
B1: the “stoichiometry N” value was determined as 3.
